Laboratory results from US12187785B2, “Recombinant protein and fragments thereof, method for producing said recombinant protein, synthetic gene and use of sculptin or recombinant protein for preparing a medicament or pharmaceutical composition for the prophylaxis and/or treatment of thromboembolic diseases or as a direct and specific …” (priority 2017, dated 2025).

What was measured:
thrombin = thrombin (Homo sapiens, UniProt P00734); assay: Thrombin inhibition, hydrolysis of chromogenic substrate S-2238; format: biochemical; parameters: Brown and cyan colors represent heavy and light chain of thrombin respectively
plasmin = target: T1, plasmin (Homo sapiens, UniProt P00747); assay: Degradation of recombinant protein by plasmin (SDS-PAGE and residual thrombin inhibition); format: in vitro ADME
T1 construct: Serine protease (100 pM; thrombin, plasmin, trypsin or factor Xa) was incubated with recombinant protein
T1 sequence (P00747 581-810 limits assumed, species assumed): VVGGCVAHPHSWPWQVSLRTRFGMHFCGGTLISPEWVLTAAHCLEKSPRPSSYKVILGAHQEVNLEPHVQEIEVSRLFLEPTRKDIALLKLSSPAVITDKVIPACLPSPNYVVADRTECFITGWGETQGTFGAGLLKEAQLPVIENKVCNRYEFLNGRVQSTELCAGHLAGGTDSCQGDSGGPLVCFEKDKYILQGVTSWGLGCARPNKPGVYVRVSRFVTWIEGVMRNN
T1 sequence (P00747 97-580 limits assumed, species assumed): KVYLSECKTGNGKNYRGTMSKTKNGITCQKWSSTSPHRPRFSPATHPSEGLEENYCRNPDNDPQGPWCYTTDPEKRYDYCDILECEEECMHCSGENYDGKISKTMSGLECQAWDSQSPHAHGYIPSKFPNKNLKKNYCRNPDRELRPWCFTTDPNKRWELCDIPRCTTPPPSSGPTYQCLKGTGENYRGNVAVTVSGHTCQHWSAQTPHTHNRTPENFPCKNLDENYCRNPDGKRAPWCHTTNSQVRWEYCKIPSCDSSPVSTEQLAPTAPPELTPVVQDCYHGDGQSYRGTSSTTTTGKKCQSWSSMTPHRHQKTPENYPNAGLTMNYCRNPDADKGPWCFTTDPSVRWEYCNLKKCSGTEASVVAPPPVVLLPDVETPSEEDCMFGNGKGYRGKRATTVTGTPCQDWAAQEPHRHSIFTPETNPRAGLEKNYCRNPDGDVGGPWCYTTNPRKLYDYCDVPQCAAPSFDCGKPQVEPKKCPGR
Procedure: (§1) Recombinant protein (10 μM) was incubated with or without serine protease 1 μM (thrombin, plasmin, trypsin or factor Xa) in phosphate buffer 50 mM containing NaCl 150 mM and 0.1% of PEG 6000, pH 7.4 for 4, 6, 7 or 18 h at 37° C. Reaction mixtures (20 μl) were split by SDS-PAGE. (A) hydrolysis SDS-PAGE (15%) of recombinant protein by serine proteases following 6 h of incubation. (B) Percentage of thrombin inhibition by recombinant protein following 6 h of incubation with serine protease (see experimental procedures). (C) hydrolysis SDS-PAGE (15%) of recombinant protein by serine proteases following 18 h of incubation. (D) Percentage of thrombin inhibition by recombinant protein following 18 h of incubation with serine protease (see experimental procedures). Numbering of (B) and (D) corresponds to numbering of (A) and (C), respectively, and recombinant protein control is represented by CTRL. Recombinant protein (strip 1); thrombin (strip 2) and thrombin with recombinant protein (strip 3); plasmin (strip 4) and plasmin with recombinant protein (strip 5); trypsin (strip 6) and trypsin with recombinant protein (strip 7); factor Xa (strip 8) and factor Xa with recombinant protein (strip 9) and protein marker (strip 10; in A). (E) Identification of cleavage sites of thrombin in recombinant protein following 7 h of incubation. (F) Identification of cleavage sites of factor Xa in recombinant protein following 4 h of incubation. Cleavage sites of thrombin and factor Xa in recombinant protein sequence are shown in FIGS. S1 and S2, respectively. Experimental procedure for (C), (D), (E) and (F) was the same as for (A) and (B), except the incubation time and the type of serine protease used. FIG. 5 discloses “GKPQG” as SEQ ID NO: 18, “MPKGG” as SEQ ID NO: 19, and “SDAVH” as SEQ ID NO: 20.
(§2) Afterwards, it was determined whether serine proteases, like thrombin, plasmin, factor Xa and trypsin, hydrolyze recombinant protein. […] Upon addition of chromogenic substrate S-2238, the hydrolysis thereof by thrombin was monitored in spectrophotometer way. […]

factor Xa [1] = target: T2, factor Xa (Homo sapiens, UniProt P00742); assay: Degradation of recombinant protein by factor Xa (SDS-PAGE and residual thrombin inhibition); format: in vitro ADME; conditions: for thrombin inhibition after incubation: diluted to 100 pM
T2 construct: Serine protease (100 pM; thrombin, plasmin, trypsin or factor Xa) was incubated with recombinant protein; For factor Xa activity, buffer contained phosphatidylserine and phosphatidylcholine 50 μM
T2 sequence (P00742 235-488 limits assumed): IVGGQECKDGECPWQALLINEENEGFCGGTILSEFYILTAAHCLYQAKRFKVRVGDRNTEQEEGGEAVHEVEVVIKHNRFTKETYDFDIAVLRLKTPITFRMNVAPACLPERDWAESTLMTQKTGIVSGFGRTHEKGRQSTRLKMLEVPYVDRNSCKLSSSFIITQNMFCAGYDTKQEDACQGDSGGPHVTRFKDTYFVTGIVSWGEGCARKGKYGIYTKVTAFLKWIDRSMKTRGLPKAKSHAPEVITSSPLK
T2 sequence (P00742 41-179 limits assumed): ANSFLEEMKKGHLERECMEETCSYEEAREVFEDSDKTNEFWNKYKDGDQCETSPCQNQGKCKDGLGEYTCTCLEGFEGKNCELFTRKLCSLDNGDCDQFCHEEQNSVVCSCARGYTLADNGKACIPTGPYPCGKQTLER
Procedure: as §1
Afterwards, it was determined whether serine proteases, like thrombin, plasmin, factor Xa and trypsin, hydrolyze recombinant protein. For this purpose, recombinant protein (10 μM) was incubated with or without serine protease 1 μM (thrombin, plasmin, trypsin or factor Xa) in phosphate buffer 50 mM containing NaCl 150 mM and 0.1% of PEG, pH 7.4 for 6 h or 18 h at 37° C. SDS-PAGE of reaction mixture following 6 h of incubation presented that, compared to control strip of recombinant protein, strip intensity of 20-kDa (corresponding to non-digested recombinant protein) decreased and strips of lower molecular weight appeared in recombinant protein incubated by thrombin (FIG. 5A). […] Upon addition of chromogenic substrate S-2238, the hydrolysis thereof by thrombin was monitored in spectrophotometer way. […]

trypsin = target: T3, trypsin (Bos taurus, UniProt P00760); assay: Degradation of recombinant protein by trypsin (SDS-PAGE and residual thrombin inhibition); format: in vitro ADME
T3 construct: gene PRSS1
T3 sequence (P00760 24-246): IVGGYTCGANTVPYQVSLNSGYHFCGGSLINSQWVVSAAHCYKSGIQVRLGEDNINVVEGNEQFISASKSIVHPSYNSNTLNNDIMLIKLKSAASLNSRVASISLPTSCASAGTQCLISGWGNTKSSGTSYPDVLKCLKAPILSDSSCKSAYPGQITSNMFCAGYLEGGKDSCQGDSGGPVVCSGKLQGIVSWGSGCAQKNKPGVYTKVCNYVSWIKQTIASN
Procedure: as §1, §2

factor Xa [2] = target: T2, factor Xa; assay: Serine protease inhibition test, factor Xa (chromogenic substrate); format: biochemical; conditions: recombinant protein 1, 100, 200 nM; protease 100 pM; 6 h at 37° C.
Procedure: (A) Inhibition of serine proteases through recombinant protein. Serine protease (100 pM; thrombin, plasmin, trypsin or factor Xa) was incubated with recombinant protein (1, 100 and 200 nM) in phosphate buffer 50 mM containing NaCl 150 mM and 0.1% of PEG 6000, pH 7.4 for 6 h at 37° C. Following addition of chromogenic substrate corresponding to reaction mixture, hydrolysis thereof was monitored at 405 nm. For factor Xa activity, buffer contained phosphatidylserine and phosphatidylcholine 50 μM. […] (B) Typical curves for hydrolysis of chromogenic substrate S-2238 (15 μM) by thrombin 0.1 nM in absence (trace a) or presence of recombinant protein (trace b, 15 pM; trace c, 30 pM; trace d, 60 pM and trace e, 100 pM) in phosphate buffer 50 mM containing NaCl 150 mM and 0.1% of PEG 6000, pH 7.4 at 37° C. (C) Residual activity of thrombin in presence of increasing concentration of recombinant protein. (D) Dose-response curves for thrombin inhibition by recombinant protein. Percentage of thrombin inhibition was plotted versus the concentration record of recombinant protein. Experimental condition of (C) and (D) is the same as in (B).
The first performed experiment was the test of serine proteases inhibition through recombinant protein. […] Hydrolysis of a chromogenic substrate through serine proteases in the presence and absence of recombinant protein was monitored in a spectrophotometer way. […]

[3] = from plot of Kobs versus recombinant protein concentration

B1: GKPQGHPHDALEARSDAVHTAVPKMPKGGHGGFEPIPIDYDERALEARSDAVHTAVPKMPKGGLGGFEPIPIDYDERALEARSDAVHTAVPKMPKGGHGGFEPIPIDYDERALEARSDAVHTAVPKMPKGGHGGFEPIPIDYDERALHALEHHHHHH (protein)
chain: GKPQGHPHDALEARSDAVHTAVPKMPKGGHGGFEPIPIDYDERALEARSDAVHTAVPKMPKGGLGGFEPIPIDYDERALEARSDAVHTAVPKMPKGGHGGFEPIPIDYDERALEARSDAVHTAVPKMPKGGHGGFEPIPIDYDERALHALEHHHHHH
modifications: Sculptin recombinat protein
notes: recombinant His-tagged protein modified from tick sculptin, expressed in E. coli
thrombin; [3]
  Koff: 0.65±0.04×10^−3 s^−1
  Kon: 4.04±0.03×10^7 M^−1 s^−1
thrombin; recombinant protein 1 nM, thrombin 100 pM, 6 h at 37° C., pH 7.4
  decrease of residual activity of thrombin: about 97%
thrombin; this study
  Inhibition Type: Competing
plasmin; 10 μM protein with 1 μM plasmin, 6 h at 37° C.
  SDS-PAGE strip of 20-kDa (non-digested recombinant protein): completely disappeared
plasmin; 10 μM protein with 1 μM plasmin, 18 h at 37° C.
  SDS-PAGE strip of 20-kDa (recombinant protein monomer): completely disappeared
plasmin; after 18 h incubation with plasmin, diluted to 100 pM
  thrombin inhibition after incubation: did not inhibit thrombin
Factor Xa [1]; 10 μM protein with 1 μM factor Xa, 6 h at 37° C.
  SDS-PAGE, hydrolysis of recombinant protein: converted the recombinant protein in fragments
Factor Xa [1]; 10 μM protein with 1 μM factor Xa, 18 h at 37° C.
  SDS-PAGE strip of 20-kDa (recombinant protein monomer): completely disappeared
Factor Xa [1]; after 6 h digestion with factor Xa, thrombin 100 pM
  thrombin inhibition after incubation: retained its thrombin inhibition activity
Factor Xa [1]; after 18 h incubation with factor Xa
  thrombin inhibition after incubation: even inhibited the thrombin activity
trypsin; 10 μM protein with 1 μM trypsin, 6 h at 37° C.
  SDS-PAGE strip of 20-kDa (non-digested recombinant protein): completely disappeared
trypsin; 10 μM protein with 1 μM trypsin, 18 h at 37° C.
  SDS-PAGE strip of 20-kDa (recombinant protein monomer): completely disappeared
trypsin; after 18 h incubation with trypsin, diluted to 100 pM
  thrombin inhibition after incubation: did not inhibit thrombin
Factor Xa [2]
  inhibition of factor Xa: did not inhibit
